# B1: Hairpin Ribozyme (parent)
# chain: GUCCUCUUUCACGUGCGCGUGAAAGAGAGAAGUGAACCAGAGAAACACACGUUGUGGUAUAUUACCUGGUA
# Variants of: B1
# Test: self-cleavage, relative activity (ratio to wild type); higher = more cleavage; co-transcriptional
row,Variant,self-cleavage
1,U33G U53A,0.138
2,G13A G29C,0.153
3,U2A G13A,0.26
4,A44U U70C,0.0872
5,C16U A64U,0.162
6,G25U A44G,0.165
7,U9C C37G,0.595
8,A47C A59U,0.112
9,U20A U60G,0.592
10,U33C C65A,0.159
11,U20C G57U,0.341
12,A44U A45C,0.321
13,G13A A22U,0.748
14,A47U A61C,0.243
15,C18U U33G,0.0901
16,C10U A41C,1.03
17,G51U U58A,0.439
18,C16A C38U,0.577
19,G34U A36U,1.52
20,C46U U58G,0.0629
21,G17C A30U,0.118
22,A49C G68A,0.164
23,C18A G69C,0.403
24,C65U G69A,0.193

row,Variant,self-cleavage
1,G29A C37A,0.107
2,G1A G51A,0.21
3,A22U U55C,0.178
4,U5G C48G,0.0331
5,C18U G42A,0.167
6,C3A A22C,0.593
7,U7G C46U,0.129
8,C10A A28C,0.251
9,G1A C3G,0.342
10,G32U A47C,0.167
11,G13U A35C,0.876
12,U53G U63A,0.13
13,G21A G29A,0.166
14,A47G G69A,0.0811
15,U5G A30U,0
16,A43U G57C,0.17
17,A11C G21A,0.605
18,C6A A36G,0.595
19,C10U C18G,0.755
20,G15U G32A,0.0947
21,C65G G68U,0.102
22,U8C A64C,0.043
23,C12U U67A,0.348
24,G1U C18G,0.131

row,Variant,self-cleavage
1,U2G U62G,0.11
2,U2G U62C,0.0918
3,G17C A43C,0.118
4,U8C C50U,0.172
5,A11C A39G,0.275
6,C50A U55A,0.6
7,G19U A41G,0.913
8,U60A G69C,0.336
9,G32A A64U,0.204
10,A26U G40C,0.0803
11,A23U G42C,0.259
12,A24C G27U,0.284
13,U20G U52A,1.09
14,G54A A71U,0.309
15,A23C A47C,0.417
16,G13U A36U,0.47
17,U2G A59G,0.225
18,G15A G69C,0.31
19,C37G C38U,0.128
20,G13C U70G,0.502
21,C38A A49C,0.11
22,A24G,0.87
23,C12A G17C,0.978
24,A22U A49C,0.146

row,Variant,self-cleavage
1,G34C A36C,1.25
2,C3U C50A,0.174
3,A22C A26G,0.557
4,A35G G51A,0.964
5,U5C C48A,0.122
6,A26C A61C,0.0459
7,G32U A36U,0.101
8,U52G,0.862
9,G29A A39G,0.128
10,A26G,0.901
11,G1U A44C,0.0421
12,G15C C37A,0.316
13,C6A A39U,0.33
14,A59G U62G,0.167
15,A28U U62G,0.0982
16,U2A A44U,0.0374
17,C37G U62A,0.153
18,U8C A35G,0.385
19,A26U C65U,0.161
20,G32C A59G,0.15
21,U9A A44G,0.0648
22,U14A C16A,0.849
23,G56A U60A,0.121
24,G27A A30C,0.141

row,Variant,self-cleavage
1,G19A A26U,0.563
2,G15C G21C,0.897
3,C6U A28C,0.428
4,A31U G32U,0.125
5,U67C U70C,0.279
6,U5G G42A,0.0213
7,A24U U53A,1.03
8,A43C G57U,0.149
9,C16U G27C,0.202
10,C18U A45G,0.174
11,C18U A36U,0.634
12,U33A G69C,0.124
13,G32U G57U,0.162
14,U2C U70A,0.241
15,A24G G27C,0.171
16,A44C U52A,0.0299
17,C18A U63A,0.13
18,G21A U33A,0.151
19,G51C U70A,0.898
20,G27U G56C,0.149
21,U2G U9A,0.242
22,U5A G13A,0.139
23,A11U A36U,0.533
24,A47G C48U,0.185

row,Variant,self-cleavage
1,A23U C48U,0.118
2,U2A A11G,0.344
3,U52A U60A,0.988
4,A22C U62C,0.196
5,A31G C46U,0.142
6,G13A G17U,0.656
7,A23C G29U,0.0906
8,A45G G51U,0.271
9,G1A C46G,0.104
10,A35G C46G,0.0878
11,G25C A26G,0.254
12,A44U G51A,0.157
13,C4G C66U,0.178
14,A44C,0.148
15,A22U G57A,0.121
16,A22C A36G,1.05
17,A31G A43G,0.207
18,A28U G29U,0.0995
19,G1U C3G,0.122
20,A61G C66U,0.277
21,G19U U67G,0.272
22,G13U A49U,0.169
23,G25U U53G,0.376
24,U5C A44U,0.0797

row,Variant,self-cleavage
1,C66G A71U,0.168
2,G21C A71U,0.794
3,A22C U58G,0.575
4,A44U C50G,0.156
5,C18G A47G,0.198
6,G19A A28C,0.417
7,C18G G69U,0.162
8,A36U U63G,0.165
9,A45U A64U,0.0728
10,A26C U53C,0.741
11,G15C A28U,0.74
12,U2A G57C,0.0768
13,G17A A64C,0.143
14,G40A U53A,0.424
15,U33G A43U,0.0768
16,A28C A35U,0.295
17,C50G C66G,0.0636
18,C10A G51A,0.695
19,A30G G69U,0.0631
20,C18U A24G,1.04
21,C16A G68U,0.181
22,A24C U60C,0.972
23,U9C A47G,0.123

# Source: the RNAGym collection of RNA variant scans (doi:10.7554/elife.80360)
